According to patent US9580487B2, “Method of treating stomach or bowel-related disorders by administering glucagon-like-peptide-2 (GLP-2) analogues” (Zealand Pharma A/S, priority 2005, dated 2017):
Entries after “also recorded” stand apart in the source; their conditions may differ. No end group written: not given here.

Assays:
[1] = test system: C57BL mice treated with 5-Fluorouracil (5-FU); test: 5-FU-induced small intestinal atrophy (SI-BW, SI length) in mice; type: in vivo; conditions: for 5-FU-induced small intestine atrophy (SI-BW, SI length): 5-405 (810) nmol/kg s.c. b.i.d., 3 days prior to and 4 days with 5-FU 50 mg/kg i.p. daily; for Efficacy on SI-length compared with 405 nmol/kg [Gly2]GLP-2 / Efficacy on SI-BW compared with 405 nmol/kg [Gly2]GLP-2: 5-FU treated mice; for Efficacy on SI-BW compared with 405 nmol/kg [Gly2]GLP-2: equimolar dose; for Efficacy on 5-FU-induced atrophy compared with [Gly2]GLP-2 (figure legends): high/highest doses vs [Gly2]GLP-2 405 nmol/kg
Method: (§1) FIG. 6 is a set of graphs showing the effect of compound 1846 (SEQ ID NO:34) (5, 15, 45, 135, 405 and 810 nmol/kg, s.c., b.i.d.; n=6/dose group) on A) small intestine-to-body weight ratio (SI-BW), and B) small intestinal length (SI length) in mice treated with the cytostatic drug 5-Fluorouracil (5-FU). Compound 1846 (SEQ ID NO:34) was administered for 3 days prior to and for 4 days together with 5-FU, 50 mg/kg, i.p. daily. For reference, [Gly2]GLP-2 (SEQ ID NO:54) (405 nmol/kg) was given to one group of animals. Results from control animals treated with vehicle (PBS) or 5-FU alone are also shown. […] Values are means±SEM. * P<0.05, relative to 5-FU.
as §1, with “FIG. 7” for “FIG. 6”, “compound 1848” for “compound 1846”, “ID NO:36)” for “ID NO:34)”, “Compound 1848” for “Compound 1846”, “5-FU. # P<0.05, relative to [Gly2]GLP-2.” for “5-FU.”
FIG. 8 is a set of graphs showing the effect of compound 1855 (SEQ ID NO:43) (5, 15, 45, 135, and 405 nmol/kg, s.c., b.i.d.; n=6/dose group) on A) small intestine-to-body weight ratio (SI-BW), and B) small intestinal length (SI length) in mice treated with the cytostatic drug 5-Fluorouracil (5-FU). Compound 1855 (SEQ ID NO:43) was administered for 3 days prior to and for 4 days together with 5-FU, 50 mg/kg, i.p. daily. For reference, [Gly2]GLP-2 (405 nmol/kg) was given to one group of animals. Results from control animals treated with vehicle (PBS) or 5-FU alone are also shown. […] Values are means±SEM. * P<0.05, relative to 5-FU. # P<0.05, relative to [Gly2]GLP-2 (SEQ ID NO:54).
FIG. 9 is a set of graphs showing the effect of compound 1857 (SEQ ID NO:45) (5, 15, 45, 135, and 405 nmol/kg, s.c., b.i.d.; n=6/dose group) on A) small intestine-to-body weight ratio (SI-BW), and B) small intestinal length (SI length) in mice treated with the cytostatic drug 5-Fluorouracil (5-FU). Compound 1857 (SEQ ID NO:45) was administered for 3 days prior to and for 4 days together with 5-FU, 50 mg/kg, i.p. daily. For reference, [Gly2]GLP-2 (SEQ ID NO:54) (405 nmol/kg) was given to one group of animals. Results from control animals treated with vehicle (PBS) or 5-FU alone are also shown. […] Values are means±SEM. * P<0.05, relative to 5-FU. # P<0.05, relative to [Gly2]GLP-2 (SEQ ID NO:54).
The rapid rate of proliferation of the small intestinal stem cells, makes them a susceptible target to the cytotoxic effects of the chemotherapeutic agents used in anti-cancer therapies. Consequently, clinical use of the chemotherapeutic agent 5-fluorouracil (5-FU) is frequently associated with small intestinal injury (atrophy and diarrhea in cancer patients. We have previously shown that i.p. administration of 50 mg/kg 5-FU once daily for four days induces significant small intestinal atrophy in C57BL mice. The effect of the lead compounds, 1846 (SEQ ID NO:34), 1848 (SEQ ID NO:36), 1855 (SEQ ID NO:43), and 1857 (SEQ ID NO:45) on 5-FU-induced small intestinal atrophy was investigated in mice. 1846 (SEQ ID NO:34), 1848 (SEQ ID NO:36), 1855 (SEQ ID NO:43), or 1857 (SEQ ID NO:45) were administered twice daily for three days prior to 5-FU and for four days together with 5-FU administration. The lead compounds were each administered at five different doses (5, 15, 45, 135 and 405 nmol/kg) that have been previously shown to effectively stimulate small intestine growth in healthy mice (Example 9). […]

[2] = Chemical stability testing: incubation in HCl, NaOH, H2O2 or NH4HCO3 at 40° C., remaining purity by RP-HPLC; type: physicochemical; conditions: for Stability during acid hydrolysis (in words): 0.1 M HCl, 12 days; for Stability during acid hydrolysis (in words) / Purity H2O2 0.5% 3 days / Purity HCl 0.1M 12 days / Purity NH4HCO3 0.1M 6 days: 40° C.; for Purity H2O2 0.5% 3 days / Purity HCl 0.1M 12 days / Purity NH4HCO3 0.1M 6 days: 2 mg/ml, relative to the purity at T=0; for Purity H2O2 0.5% 3 days / Purity HCl 0.1M 12 days: RP-HPLC; for Purity NH4HCO3 0.1M 6 days: pH 8, RP-HPLC
Method: The GLP-2 analogues were dissolved in purified water and subsequently diluted in solutions containing HCl, NaOH, H2O2 or NH4HCO3. The solutions were incubated at 40° C. to produce hydrolysis, deamidation and oxidation products. The samples were analyzed by RP-HPLC and the percentage of remaining intact compound was determined as a measure for the relative stability. The major degradation products were tentatively identified by LC-MS.
The GLP-2 analogues tested and the reference Gly^2-GLP-2, ZP1559 (SEQ ID NO:54), were dissolved in water and subsequently diluted into solutions containing HCl, NaOH, H2O2 or NH4HCO3. The samples were incubated at 40° C. to generate hydrolysis, deamidation and oxidation products, respectively. The compounds were analysed by RP-HPLC for purity of the original main peak and by LC-MS for confirmation of the identity by mass of the main peak and major degradation products.
The GLP-2 analogues were first dissolved in MQW to a concentration of 4 mg/ml and then further diluted in the stress solutions at a 1:1 ratio (e.g. 125 μl plus 125 μl). The final concentrations were 2 mg/ml of the GLP-2 analogues for stress conditions with 0.1 M HCl, 0.01M NaOH, 0.1 M NH4HCO3 and 0.5% H2O2, respectively.
The solutions were incubated at 40° C. in the dark and then diluted in Eluent A to a concentration of 0.5 mg/ml (addition of 750 μl) prior to analyses by RP-HPLC and by LC-MS.
The RP-HPLC analyses were performed on an Agilent Series 1100 HPLC system under control of the ChemStation (Revision A.08.03 [847]) software from Agilent Technologies, Inc. The raw data and the results of the peak integration were deposited on the ChemStore C/S server by the use of Agilent Technologies Revision B01.03 software.
The results are shown in Table 9 as the compound purity measured by RP-HPLC after incubation under stress conditions. This purity is a measure for the remaining intact compound after incubation in stress solutions, relative to the purity measured a T=0.

Row | Substance | 5-FU-induced small intestine atrophy (SI-BW, SI length) [1] | Efficacy on SI-length compared with 405 nmol/kg [Gly2]GLP-2 [1] | Efficacy on SI-BW compared with 405 nmol/kg [Gly2]GLP-2 [1] | Stability during acid hydrolysis (in words) [2] | Purity H2O2 0.5% 3 days [2] [%] | Purity HCl 0.1M 12 days [2] [%] | Purity NH4HCO3 0.1M 6 days [2] [%] | Efficacy on 5-FU-induced atrophy compared with [Gly2]GLP-2 (figure legends) [1] | Stability under accelerated oxidation (in words) ([2]; 0.5% H2O2, 40° C., 3 days)
1 | [Gly2, Glu3, Leu10, Ser11, Ala16,24,28]hGLP-2(1-33)-NH2 [Compound 1857] | prevented 5-FU-induced small intestine atrophy; also recorded: dose-dependently prevented 5-FU-induced SI atrophy and maintained SI-BW at levels similar to PBS controls | significantly more efficacious than 405 nmol/kg [Gly2]GLP-2 | significantly more efficacious than 405 nmol/kg [Gly2]GLP-2 | tendency of slightly higher stability | 59 | 86 | 96 |  | 
2 | [Gly2, Glu3, Ser8,11, Leu10, Ala16,24,28]hGLP-2(1-33)-(Lys)6-NH2 (HGEGSFSSELSTILDALAARDFIAWLIATKITDKKKKKK-NH2) [Compound 1846] | prevented 5-FU-induced small intestine atrophy; also recorded: dose-dependently prevented 5-FU-induced SI atrophy and maintained SI-BW at levels similar to PBS controls |  |  |  | 64 | 70 | 82 |  | 
3 | [Gly2, Glu3, Thr5, Ser8, Leu10, Ala11,16,24,28]hGLP-2(1-33)-(Lys)6-NH2 (HGEGTFSSELATILDALAARDFIAWLIATKITDKKKKKK-NH2) [Compound 1848] | prevented 5-FU-induced small intestine atrophy; also recorded: dose-dependently prevented 5-FU-induced SI atrophy and maintained SI-BW at levels similar to PBS controls | significantly more efficacious than 405 nmol/kg [Gly2]GLP-2 | significantly more efficacious than 405 nmol/kg [Gly2]GLP-2 |  | 68 | 63 | 93 | more efficacious than [Gly2]GLP-2 | 
4 | [Gly2, Glu3, Thr5, Ser8, Leu10, Ala11,16,24,28]hGLP-2(1-33)-NH2 [Compound 1855] | prevented 5-FU-induced small intestine atrophy; also recorded: dose-dependently prevented 5-FU-induced SI atrophy and maintained SI-BW at levels similar to PBS controls |  | significantly more efficacious than 405 nmol/kg [Gly2]GLP-2 | tendency of slightly higher stability | 14 | 85 | 97 | more efficacious than the equimolar dose of [Gly2]GLP-2; also recorded: more efficacious than a high dose of [Gly2]GLP-2 | unexplainable low stability
